These results are taken from US20170088602A1 (Bristol-Myers Squibb, published 2017).

A value given as a limit tells only on which side of the number the result lay.

By Kd is commonly meant the constant that tells how readily two partners part at equilibrium. The IC50 is the concentration at which inhibition is half-maximal.

For assay [1], the target named is T1, human Activin A (R&D Systems) (human, UniProt P08476 311-426).
T1 sequence (looked up): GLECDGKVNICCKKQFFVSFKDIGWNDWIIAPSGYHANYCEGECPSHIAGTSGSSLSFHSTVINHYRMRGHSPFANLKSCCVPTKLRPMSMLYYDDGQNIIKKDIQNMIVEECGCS
Briefly: cell-based or functional assay.

Assay [2] addresses T2, human myostatin (mature, recombinant; R&D Systems) (human, UniProt O14793 267-375).
T2 sequence: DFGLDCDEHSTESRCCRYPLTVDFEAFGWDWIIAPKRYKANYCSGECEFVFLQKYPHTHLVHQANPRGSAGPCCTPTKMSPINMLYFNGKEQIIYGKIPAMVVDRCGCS
The experiment in a line: cell-based or functional assay.

For assay [3], the target named is T3, human BMP-11 (GDF-11; R&D Systems) (human, UniProt O95390 299-407).
T3 sequence (looked up): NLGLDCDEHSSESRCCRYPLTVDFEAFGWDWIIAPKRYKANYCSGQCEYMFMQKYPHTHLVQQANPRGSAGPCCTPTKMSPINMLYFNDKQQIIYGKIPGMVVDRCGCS
The experiment in a line: cell-based or functional assay.

The target in assay [4] is T2, human myostatin (mature, recombinant; …). Briefly: SPR format A, 25C. The source says:
(§1) Anti-human Fc antibody (Biacore/GE) was immobilized on a Biacore CM5 chip via NHS/EDC coupling according to the manufacturer's instructions. […] A concentration range of anti-myostatin Adnectin was applied across all flow cells in HBSP running buffer. Regeneration of the chip surface between cycles was accomplished with two 30 second pulses of 3M MgCl₂. Kinetic traces of reference-subtracted sensorgrams were fit to a 1:1 binding model using Biaevaluation software.

Assay [5] has as its target T3, human BMP-11 (GDF-11; R&D Systems). The experiment in a line: SPR format A, 25C.
Source text: as §1

The target in assay [6] is T2, human myostatin (mature, recombinant; …). Briefly: cell-based or functional assay. The source holds these as a separate data set.
For assay [7] the target is unchanged. Briefly: competitive HTRF, alanine scan. In general terms: Time-resolved FRET reads energy transfer from a long-lived donor to a nearby acceptor.
The target is the same in assay [8]. Briefly: competitive HTRF (1889E01/myostatin/ActRIIb-Fc sandwich). The text has this:
An HTRF assay was used to measure the binding affinities of anti-myostatin Adnectins to myostatin. […] The Eu-W 1024 labeled Streptavidin is used to bind biotinylated 1889E01. […] In the presence of a competitive Adnectin, the HTRF signal decreases.

For assay [9] the target is unchanged. Briefly: cell-based or functional assay. The source holds these as a separate data set.

B1: 2524_D09 (designed binder)
chain: MGVSDVPRDLEVVAATPTSLLISWYLPYPAHMNYYRITYGETGGNSPVQEFTVPGRGLTATISGLKPGVDYTITVYAVTLTKSQILHHRPISINYRTEIDKPSQHHHHHH
Take B1: the “ARE-luciferase IC50” value was 84 nM in assay [1], 0.06 nM in assay [2] and 0.55 nM in assay [3]. The Kd in assay [4] was determined as 0.64 nM; in assay [5], 0.81 nM. Further, the “pSmad2 IC50, 12-point” value in assay [6] stood at 0.11 nM.

B2: 2525_D02 (designed binder)
chain: MGVSDVPRDLEVVAATPTSLLISWTLPHAGRAHYYRITYGETGGNSPVQEFTVPGRGVTATISGLKPGVDYTITVYAVTVTTTSVILYKPISINYRTEIDKPSQHHHHHH
As to B2, the figures for the “ARE-luciferase IC50” value in [1], in assay [2] and in [3] were 345 nM, 0.05 nM and 1.1 nM, respectively. In addition, the results for the Kd in assay [4] and in [5] were 0.24 nM and 0.3 nM, respectively. Also, the “pSmad2 IC50, 12-point” value in assay [6] amounted to 0.36 nM.

B3: 2524_H05 (designed binder)
chain: MGVSDVPRDLEVVAATPTSLLISWSLPYSGLANYYRITYGETGGNSPVQEFTVPGRGVTATISGLKPGVDYTITVYAVTLTHSNIIRYVPISINYRTEIDKPSQHHHHHH
Take B3: the “ARE-luciferase IC50” value in assay [1] is above 1000 nM; in [2], 0.09 nM; in [3], 7.3 nM. In addition, the Kd in assay [4] was 0.88 nM; in assay [5] it was 0.87 nM. In assay [6], the “pSmad2 IC50, 12-point” value is 0.13 nM.

B4: 2525_F07 (designed binder)
chain: MGVSDVPRDLEVVAATPTSLLISWSLPYAAHMNYYRITYGETGGNSPVQEFTVPGRGVTATISGLKPGVDYTITVYAVTLTRSQVIHYMPISINYRTEIDKPSQHHHHHH
In the case of B4, the “ARE-luciferase IC50” value is above 1000 nM in assay [1], 0.13 nM in assay [2] and 3.4 nM in assay [3]. The Kd in assay [4] came out at 0.79 nM; in assay [5], 0.97 nM. Further, the “pSmad2 IC50, 12-point” value in assay [6] turned out to be 0.27 nM.

B5: 2525_B01 (designed binder)
chain: MGVSDVPRDLEVVAATPTSLLISWTLPNFGLINYYRITYGETGGNSPVQEFTVPGRGVTATISGLKPGVDYTITVYAVTITKSTIIIYKPISINYRTEIDKPSQHHHHHH
Consider B5, for which the entries for the “ARE-luciferase IC50” value in assay [1], in assay [2] and in assay [3] were 73 nM, 0.11 nM and 3.2 nM, respectively. Besides, the Kd in [4] was determined as 1.29 nM; in [5], 1.58 nM. The “pSmad2 IC50, 12-point” value in [6] was found to be 0.14 nM.

B6: 2522_C09 (designed binder)
chain: MGVSDVPRDLEVVAATPTSLLISWEVPRGLARYYRITYGETGGNSPVQEFTVLGRGSTATISGLKPGVDYTITVYAVTVYRDGPLLLAPISINYRTEIDKPSQHHHHHH
Consider B6, for which the “ARE-luciferase IC50” value in [1] worked out at 1000 nM; in [2], 0.06 nM; in [3], 1.6 nM. The results for the dissociation constant Kd in assay [4] and in [5] were 0.51 nM and 0.45 nM, respectively. The “pSmad2 IC50, 12-point” value in assay [6] was 0.13 nM.

B7: 3116_A06 (designed binder)
chain: MGVSDVPRDLEVVAATPTSLLISWSLPHQGKANYYRITYGETGGNSPVQEFTVPGRGVTATISGLKPGVDYTITVYAVTVTDTGYLKYKPISINYRTEIDKPSQHHHHHH
notes: also called WT parent
On to B7, for which the IC50 in [7] came to 0.3 nM; in assay [8] it was 0.15 nM. Also, the “ARE-luciferase IC50” value is above 1000 nM in assay [1], 0.14 nM in assay [2] and 13 nM in assay [3]. Besides, in assay [6], the “pSmad2 IC50, 4-point” value worked out at 0.27 nM. Besides, the “Myostatin ARE-luc IC50” value in assay [9] amounted to 0.6 nM.

B8: 3116_A06 V58A (designed binder)
chain: MGVSDVPRDLEVVAATPTSLLISWSLPHQGKANYYRITYGETGGNSPVQEFTVPGRGATATISGLKPGVDYTITVYAVTVTDTGYLKYKPISINYRTEIDKPSQHHHHHH
Turning to B8, the IC50 in [7] is 1.6 nM. Further, the “Myostatin ARE-luc IC50” value in assay [9] was 3.3 nM.

B9: 3116_A06 K31A (designed binder)
chain: MGVSDVPRDLEVVAATPTSLLISWSLPHQGAANYYRITYGETGGNSPVQEFTVPGRGVTATISGLKPGVDYTITVYAVTVTDTGYLKYKPISINYRTEIDKPSQHHHHHH
Regarding B9, in [7], the IC50 came out at 0.6 nM. Moreover, the “Myostatin ARE-luc IC50” value in assay [9] is 2.2 nM.

B10: 3116_A06 G57A (designed binder)
chain: MGVSDVPRDLEVVAATPTSLLISWSLPHQGKANYYRITYGETGGNSPVQEFTVPGRAVTATISGLKPGVDYTITVYAVTVTDTGYLKYKPISINYRTEIDKPSQHHHHHH
On to B10, for which, in [7], the IC50 was above 100 nM. Also, in [9], the “Myostatin ARE-luc IC50” value is above 100 nM.

B11: 3116_A06 S25A (designed binder)
chain: MGVSDVPRDLEVVAATPTSLLISWALPHQGKANYYRITYGETGGNSPVQEFTVPGRGVTATISGLKPGVDYTITVYAVTVTDTGYLKYKPISINYRTEIDKPSQHHHHHH
In the case of B11, the IC50 in assay [7] is 0.8 nM. For the same molecule, the “Myostatin ARE-luc IC50” value in [9] was determined as 2.9 nM.

B12: 3116_A06 G55A (designed binder)
chain: MGVSDVPRDLEVVAATPTSLLISWSLPHQGKANYYRITYGETGGNSPVQEFTVPARGVTATISGLKPGVDYTITVYAVTVTDTGYLKYKPISINYRTEIDKPSQHHHHHH
With B12, the IC50 in assay [7] was above 100 nM. For the same molecule, the “Myostatin ARE-luc IC50” value in assay [9] was above 100 nM.

B13: 3116_A06 D82A (designed binder)
chain: MGVSDVPRDLEVVAATPTSLLISWSLPHQGKANYYRITYGETGGNSPVQEFTVPGRGVTATISGLKPGVDYTITVYAVTVTATGYLKYKPISINYRTEIDKPSQHHHHHH
With B13, the IC50 in assay [7] came out at 0.8 nM. Moreover, the “Myostatin ARE-luc IC50” value in [9] was 1.8 nM.

B14: 3116_A06 T83A (designed binder)
chain: MGVSDVPRDLEVVAATPTSLLISWSLPHQGKANYYRITYGETGGNSPVQEFTVPGRGVTATISGLKPGVDYTITVYAVTVTDAGYLKYKPISINYRTEIDKPSQHHHHHH
For the molecule B14, the IC50 in assay [7] was found to be 1.3 nM. Also, the “Myostatin ARE-luc IC50” value in assay [9] is 1.8 nM.

B15: 3116_A06 G84A (designed binder)
chain: MGVSDVPRDLEVVAATPTSLLISWSLPHQGKANYYRITYGETGGNSPVQEFTVPGRGVTATISGLKPGVDYTITVYAVTVTDTAYLKYKPISINYRTEIDKPSQHHHHHH
As to B15, in assay [7], the IC50 worked out at 2 nM. In assay [9], the “Myostatin ARE-luc IC50” value stood at 3.6 nM.

B16: 3116_A06 K87A (designed binder)
chain: MGVSDVPRDLEVVAATPTSLLISWSLPHQGKANYYRITYGETGGNSPVQEFTVPGRGVTATISGLKPGVDYTITVYAVTVTDTGYLAYKPISINYRTEIDKPSQHHHHHH
With B16, in assay [7], the IC50 was 0.8 nM. Besides, in assay [9], the “Myostatin ARE-luc IC50” value worked out at 2 nM.

B17: 3116_A06 Q29A (designed binder)
chain: MGVSDVPRDLEVVAATPTSLLISWSLPHAGKANYYRITYGETGGNSPVQEFTVPGRGVTATISGLKPGVDYTITVYAVTVTDTGYLKYKPISINYRTEIDKPSQHHHHHH
For B17, the IC50 in assay [7] amounted to 0.7 nM. Moreover, the “Myostatin ARE-luc IC50” value in assay [9] was determined as 1.5 nM.

B18: 3116_A06 K89A (designed binder)
chain: MGVSDVPRDLEVVAATPTSLLISWSLPHQGKANYYRITYGETGGNSPVQEFTVPGRGVTATISGLKPGVDYTITVYAVTVTDTGYLKYAPISINYRTEIDKPSQHHHHHH
As for B18, the IC50 in [7] turned out to be 0.7 nM. For the same molecule, the “Myostatin ARE-luc IC50” value in [9] was 1.6 nM.

B19: ATI-1277 [N-ethylmaleimide] (designed binder)
chain: MGVSDVPRDLEVVAATPTSLLISWSLPYAGHLNYYRITYGETGGNSPVQEFTVPGRGVTATISGLKPGVDYTITVYAVTLTKSQLIHYMPISINYRTEGSGCHHHHHH
modifications: N-ethylmaleimide on the Cys of the EGSGC tail
notes: cysteine mutant of 2525_D05
For the molecule B19, the “ARE-luciferase IC50” value in [1] turned out to be 2000 nM; in assay [2], 0.14 nM; in [3], 1.18 nM. Besides, the Kd in assay [4] was 0.16 nM; in assay [5] it was 0.14 nM. Moreover, in assay [8], the IC50 stood at 0.38 nM.

B20: ATI-1267 [N-ethylmaleimide] (designed binder)
chain: MGVSDVPRDLEVVAATPTSLLISWTLPHAGRAHYYRITYGETGGNSPVQEFTVPGRGVTATISGLKPGVDYTITVYAVTVTTTSVILYKPISINYRTEGSGCHHHHHH
modifications: N-ethylmaleimide on the Cys of the EGSGC tail
notes: cysteine mutant of 2525_D02
B20: the “ARE-luciferase IC50” value in assay [1] is 644 nM; in assay [2], 0.06 nM; in [3] it was 0.5 nM. Also, the equilibrium dissociation constant (Kd) in [4] is 0.057 nM; in assay [5], 0.065 nM. Also, the IC50 in assay [8] came to 0.12 nM.
